Experiment [1] concerns the target T1, HLA-A2/MAGE-C2 risk peptide on T2 cells (human).
T1 construct: whole, on cells
The experiment is described as follows: FACS on T2 cells pulsed with risk peptide.

Experiment [2] has as its target T2, HLA-A2/MAGE-A10 risk peptide on T2 cells (human).
T2 construct: whole, on cells
The experiment is described as follows: FACS on T2 cells pulsed with risk peptide.

For experiment [3], the target named is T3, HLA-A2/RBBP5 risk peptide on T2 cells (human).
T3 construct: whole, on cells; Theoretical MHC IC50 is high (5880.0 nM)
The experiment is described as follows: FACS on T2 cells pulsed with risk peptide.

The target of experiment [4] is T4, HLA-A2/MAGE-B2 risk peptide on T2 cells (human).
T4 construct: whole, on cells
The experiment is described as follows: FACS on T2 cells pulsed with risk peptide.

For experiment [5], the target named is T5, HLA-A2/MAGE-B10 risk peptide on T2 cells (human).
T5 construct: whole, on cells
The experiment is described as follows: FACS on T2 cells pulsed with risk peptide.

The target of experiment [6] is T6, HLA-A2/MAGE-A8 risk peptide on T2 cells (human).
T6 construct: whole, on cells
The experiment is described as follows: FACS on T2 cells pulsed with risk peptide.

For experiment [7], the target named is T7, HLA-A2/MAGE-A11 risk peptide on T2 cells (human).
T7 construct: whole, on cells
The experiment is described as follows: FACS on T2 cells pulsed with risk peptide.

Experiment [8] addresses T8, HLA-A2-MAGE-A4 p230 monomer (human).
T8 construct: Biotinylated soluble monomer, captured on neutravidin plates (ELISA) or on the Biacore sensor chip CAP; also called HLA-A2-MAGE-A4 monomer; MAGE-A4-derived peptide/HLA-A2 complex
The experiment is described as follows: SPR, BiacoreX100, HLA-A2-MAGE-A4 p230 on sensor chip CAP, purified scFv 12.5-200 nM, single cycle.
Experimental: Determination of KD value by Biacore was determined by measuring the dynamic changes in detection sensitivity (resonance, reflecting the change in mass on the chip) over time. The dissociation rate constant (Kd) and the binding rate constant (Ka) were determined by dynamic change curve, the binding constant was determined from the ratio of the two constants.

As usually defined, the Kd is the concentration at which binding is half-saturated. Higher therefore signals a looser complex.

B1: MAGE #17 scFv-FLAG/His (scFv)
scFv: QVQLVQSGAEVKKPGSSVKVSCKASGGTFSSYAISWVRQAPGQGLEWMGGIIPIFGTANYAQKFQGRVTITADKSTSTAYMELSSLRSEDTAVYYCARSPRRAYHDAFDIWGQGTMVTVSSGGGGSGGGGSGGGGSSYELTQPPSMSVAPGKTASITCGGDHIGSKSVHWYQQKPGQAPVLVVYDDSDRPSGIPERFSGSNSGNTATLTISGTQAMDEADYYCLAWDSSTAIFGGGTKLTVL
notes: Purified scFv-FLAG/His form, used for Biacore and for FACS on T2 cells (detection with anti-FLAG); also called clone #17; anti-MAGE #17; not shown: FLAG tag and His tag from the His/FLAG expression vector
For the molecule B1, the binding result in experiment [1], in experiment [2], in experiment [3], in experiment [4], in experiment [5] and in experiment [6] was “no binding” each time. Also, the binding result in experiment [7] is reported as “no binding”. Also, the affinity in experiment [8], expressed as Kd, was 22 nM.
